Experiment [1] addresses HLA-A*01:01. Description: IEDB peptide-MHC binding, purified MHC/competitive/fluorescence; ≥ and ≤ were set here for values at or beyond the usual limits of such assays.
For experiment [2], the target named is HLA-A*02:01. The experiment is described as above.
The target in experiment [3] is HLA-A*68:02. Description: IEDB peptide-MHC binding, purified MHC/competitive/fluorescence; filed as Kd, often an IC50 or EC50 that approximates it; ≥ and ≤ were set here for values at or beyond the usual limits of such assays. Particulars: source organism: Influenza A virus H3N2.
For experiment [4], the target named is HLA-A*02:01. Described as above. Particulars: source organism: Influenza A virus H3N2.
In another experiment the target is HLA-A*02:06. The experiment is described as above. Particulars: source organism: Influenza A virus H3N2.
In the next experiment the target is HLA-A*02:03. The experiment is described as above. The note with it: source organism: Influenza A virus H3N2.
For another experiment, the target named is HLA-B*39:01. Description: IEDB peptide-MHC binding, purified MHC/direct/fluorescence; filed as Kd, often an IC50 or EC50 that approximates it; ≥ and ≤ were set here for values at or beyond the usual limits of such assays. Particulars: source organism: Influenza A virus(A/swine/Shandong/fNY/2003(H9N2)).
For experiment [5], the target named is HLA-A*01:01. Described as above.
The next experiment concerns the target HLA-B*18:01. Described as above.
In a further experiment the target is HLA-B*15:09. The description is as above. Particulars: source organism: Influenza A virus(A/swine/Shandong/fNY/2003(H9N2)).
Another experiment has as its target HLA-B*57:01. The experiment is described as above.
The target of the next experiment is HLA-B*07:02. The experiment is described as above.
The target in the next experiment is HLA-B*58:01. The description is as above.
Experiment [6] concerns the target HLA-A*11:01. The experiment is described as above.
The target of the next experiment is HLA-B*08:01. Described as above.
Another experiment deals with HLA-A*31:01. The experiment is described as above.
Experiment [7] deals with HLA-B*15:01. The experiment is described as above.
Another experiment has as its target HLA-A*24:02. The experiment can be described thus: IEDB peptide-MHC binding, purified MHC/competitive/fluorescence; ≥ and ≤ were set here for values at or beyond the usual limits of such assays. The note with it: source organism: Zaire ebolavirus.
The target of experiment [8] is HLA-A*11:01. The description is as above. The note with it: source organism: Zaire ebolavirus.
The target in experiment [9] is HLA-B*15:01. The description is as above. Particulars: source organism: Zaire ebolavirus.
For experiment [10], the target named is HLA-A*03:01. The experiment is described as above. Particulars: source organism: Zaire ebolavirus.
For experiment [11], the target named is HLA-A*02:01. The experiment can be described thus: IEDB peptide-MHC binding, cellular MHC/competitive/fluorescence; ≥ and ≤ were set here for values at or beyond the usual limits of such assays.
A further experiment deals with HLA-A*26:03. The experiment can be described thus: IEDB peptide-MHC binding, purified MHC/competitive/fluorescence; filed as Kd, often an IC50 or EC50 that approximates it; ≥ and ≤ were set here for values at or beyond the usual limits of such assays. Particulars: source organism: Orthomarburgvirus marburgense.
The target of experiment [12] is HLA-A*68:02. The experiment can be described thus: IEDB peptide-MHC binding, purified MHC/direct/fluorescence; filed as Kd, often an IC50 or EC50 that approximates it; ≥ and ≤ were set here for values at or beyond the usual limits of such assays.
Experiment [13] has as its target HLA-A*02:01. The description is as above.
The next experiment has as its target HLA-B*48:01. The experiment is described as above.
The target of a further experiment is HLA-B*46:01. The experiment is described as above. The note with it: source organism: Marburg virus - Musoke, Kenya, 1980.
For the next experiment, the target named is HLA-B*40:01. The description is as above. The note with it: source organism: Marburg virus - Musoke, Kenya, 1980.
The target of the next experiment is HLA-B*27:05. The description is as above.
For experiment [14], the target named is HLA-A*03:01. Described as above.
The target in a further experiment is HLA-B*15:17. The description is as above.
The next experiment concerns the target HLA-B*08:02. The description is as above. The note with it: source organism: Ravn virus - Ravn, Kenya, 1987.
The target of experiment [15] is HLA-A*11:01. Description: IEDB peptide-MHC binding, purified MHC/competitive/fluorescence; filed as Kd, often an IC50 or EC50 that approximates it; ≥ and ≤ were set here for values at or beyond the usual limits of such assays. The note with it: source organism: Campylobacter jejuni subsp. jejuni NCTC 11168 = ATCC 700819.
For the next experiment, the target named is HLA-B*73:01. Description: IEDB peptide-MHC binding, purified MHC/direct/fluorescence; filed as Kd, often an IC50 or EC50 that approximates it; ≥ and ≤ were set here for values at or beyond the usual limits of such assays. Particulars: source organism: Campylobacter jejuni RM1221.
Another experiment addresses HLA-A*69:01. The experiment is described as above. The note with it: source organism: Campylobacter jejuni RM1221.
In the next experiment the target is HLA-B*83:01. Description: IEDB peptide-MHC binding, purified MHC/competitive/fluorescence; filed as Kd, often an IC50 or EC50 that approximates it; ≥ and ≤ were set here for values at or beyond the usual limits of such assays. The note with it: source organism: Francisella tularensis subsp. tularensis FSC198.
Another experiment deals with HLA-C*14:02. The description is as above. Particulars: source organism: Francisella tularensis subsp. tularensis FSC198.
The next experiment deals with HLA-C*04:01. The experiment is described as above. Particulars: source organism: Francisella tularensis subsp. tularensis FSC198.
The next experiment deals with HLA-B*15:42. Described as above. The note with it: source organism: Francisella tularensis subsp. tularensis FSC198.
The next experiment addresses HLA-B*45:06. The experiment is described as above. The note with it: source organism: Francisella tularensis subsp. tularensis FSC198.
For the next experiment, the target named is HLA-A*80:01. Description: IEDB peptide-MHC binding, purified MHC/direct/fluorescence; filed as Kd, often an IC50 or EC50 that approximates it; ≥ and ≤ were set here for values at or beyond the usual limits of such assays. Particulars: source organism: Francisella tularensis subsp. holarctica LVS.
In a further experiment the target is HLA-C*08:02. The description is as above. Particulars: source organism: Francisella tularensis subsp. tularensis FSC198.
Where [16] appears, read: source organism: Influenza A virus (A/equine/New York/1/1999(H3N8)).
[17] abbreviates: source organism: Zaire ebolavirus.
Where [18] appears, read: source organism: Marburg virus - Musoke, Kenya, 1980.
The mark [19] stands for this setting: source organism: Campylobacter jejuni RM1221.

Results on 8 sequences are retold here after the Immune Epitope Database (IEDB).

A value given as a limit tells only on which side of the number the result lay.

Usually IC50 stands for the concentration that inhibits the measured activity by half. A word on the Kd: it is a measure of binding affinity in units of concentration. Low readings indicate a tighter complex, high ones a looser complex.

Turning to KIDSMFLMT, the IC50 is not below 104 µM with HLA-A*01:01 [1] (source organism: Variola virus) and 0.565 µM with HLA-A*02:01 [2] (source organism: Variola virus).
For ELVRKTRFL, the Kd is 1.43 µM in the experiment with HLA-A*68:02 [3]; not below 20 µM with HLA-A*02:01 [4]; 2.88 µM with HLA-A*02:06; not below 20 µM with HLA-A*02:03; not below 20 µM with HLA-B*39:01; not below 20 µM in the experiment with HLA-A*01:01 [5] (setting [16]). Further, the Kd with HLA-B*18:01 (setting [16]), with HLA-B*15:09, in the experiment with HLA-B*57:01 (setting [16]), with HLA-B*07:02 (setting [16]), in the experiment with HLA-B*58:01 (setting [16]) and with HLA-A*11:01 [6] (setting [16]) was not below 20 µM throughout. Further, the figures for the Kd with HLA-B*08:01 (setting [16]), in the experiment with HLA-A*31:01 (setting [16]) and with HLA-B*15:01 [7] (setting [16]) were 1.62 µM, not below 20 µM and not below 20 µM, respectively.
SLPKTSGHY: the IC50 was 47.5 µM with HLA-A*24:02; 37.8 µM with HLA-A*01:01 [1] (setting [17]); not below 368 µM with HLA-A*02:01 [2] (setting [17]); not below 105 µM in the experiment with HLA-A*11:01 [8]; 4.02 µM in the experiment with HLA-B*15:01 [9]; not below 91.7 µM in the experiment with HLA-A*03:01 [10].
YMDDLYVGSD showed an IC50 in the experiment with HLA-A*02:01 [11] (source organism: Human immunodeficiency virus 1) of 8 µM.
Regarding IISTNTLGK, the Kd in the experiment with HLA-A*26:03, in the experiment with HLA-A*01:01 [5] (setting [18]), with HLA-B*18:01 (setting [18]), with HLA-A*68:02 [12] (setting [18]), with HLA-A*02:01 [13] (setting [18]) and with HLA-B*57:01 (setting [18]) was not below 20 µM throughout. Further, the Kd was not below 20 µM with HLA-B*07:02 (setting [18]); not below 20 µM with HLA-B*48:01 (setting [18]); not below 20 µM in the experiment with HLA-B*58:01 (setting [18]); not below 20 µM with HLA-B*46:01; not below 20 µM in the experiment with HLA-B*40:01; 0.129 µM with HLA-A*11:01 [6] (setting [18]). Also, the Kd in the experiment with HLA-B*27:05 (setting [18]) is not below 20 µM; in the experiment with HLA-A*31:01 (setting [18]), not below 20 µM; with HLA-B*15:01 [7] (setting [18]), not below 20 µM; with HLA-A*03:01 [14] (setting [18]) it was 0.249 µM; with HLA-B*15:17 (setting [18]), not below 20 µM; with HLA-B*08:02 it was not below 20 µM.
As to AKYEICLEK, the Kd in the experiment with HLA-A*11:01 [15], with HLA-A*01:01 [5] (setting [19]), with HLA-B*18:01 (setting [19]), with HLA-B*73:01, with HLA-A*68:02 [12] (setting [19]) and with HLA-A*02:01 [13] (setting [19]) was not below 20 µM throughout. For the same sequence, the Kd with HLA-B*57:01 (setting [19]), in the experiment with HLA-B*07:02 (setting [19]), with HLA-B*48:01 (setting [19]), with HLA-B*58:01 (setting [19]), in the experiment with HLA-B*08:01 (source organism: Campylobacter jejuni subsp. jejuni 81-176) and with HLA-B*27:05 (setting [19]) was not below 20 µM each time. The dissociation constant Kd with HLA-A*31:01 (setting [19]), with HLA-B*15:01 [7] (setting [19]), with HLA-A*03:01 [14] (setting [19]), with HLA-A*69:01 and with HLA-B*15:17 (setting [19]) was not below 20 µM each time.
For the sequence YTDKIAMSY, the Kd in the experiment with HLA-B*83:01 was not below 5 µM; with HLA-C*14:02, 0.0684 µM; in the experiment with HLA-C*04:01 it was not below 5 µM; with HLA-B*15:42 it was not below 5 µM; with HLA-B*45:06 it was not below 5 µM; with HLA-A*01:01 [5] (source organism: Francisella tularensis subsp. holarctica LVS), not above 0.001 µM. The Kd with HLA-A*80:01 was determined as 0.0005 µM; with HLA-C*08:02, 0.651 µM.
The sequence SLLDKIIGA returned an IC50 in the experiment with HLA-A*02:01 [11] (source organism: Homo sapiens) of 15 µM.
